The record followed here is patent US20120283421A1.

This assay addresses nine-person peanut-specific IgE antibody pool. Put plainly: competitive ELISA inhibition, pooled serum IgE on coated crude peanut. For orientation: In an ELISA, binding on a coated surface is turned into a signal by an enzyme label.

B1: Ara h 2 (purified from peanut) (protein)
chain: QQWELQGDRRCQSQLERANLRPCEQHLMQKIQRDEDSYERDPYSPSQDPYSPSPYDRRGAGSSQHQERCCNELNEFENNQRCMCEALQQIMENQSDRLQGRQQEQQFKRELRNLPQQCGLRAPQRCDLDVESGGRDRY
modifications: 20% carbohydrate
Regarding B1, the 50% inhibitory concentration (IC50) was found to be 0.4 ng/mL.

As a reminder, the IC50 is the concentration at which inhibition is half-maximal. Low readings indicate greater potency, high ones weaker potency.
